Results from patent US9512196B2, “Short-form human MD-2 as a negative regulator of toll-like receptor 4 signaling” (Cedars-Sinai Medical Center, priority 2008, dated 2016).

Key:
[1] = test system: lung inflammation induced by LPS; assay: LPS-induced lung inflammation in mice after in vivo plasmid transfection; set-up: species or system mouse
Method: (A) MD-2s expression can be detected following in vivo transfection. RNA was isolated from lung tissue of wild-type mice at 48 h post in vivo transfection with control vector (lane 1), Myc-MD2 (lane 2) or a plasmid encoding MycMD-2s (lane 3) and reverse transcribed into cDNA. RT-PCR using human MD-2-specific primers (lanes 1-3) or murine GAPDH primers (lanes 4-6), was then performed. (B-E) Wild-type mice were transfected with control vector (EV, open bars) or a plasmid encoding MD-2s (black bars) 48 h before being challenged intratracheally with PBS or 10 μg of LPS, for 24 h. MD-2s expression reduced (B) IL-6 concentration in bronchoalveolar lavage fluid (BALF), (C) KC concentration in the lung homogenate, and (D) recruitment of polymorphonuclear leukocytes (PMN) into the lung.

TLR4 = biological target: T1, TLR4 (Homo sapiens, UniProt O00206); assay: Confocal co-localization with CFP-tagged TLR4 in HEK293 cells; assay type: cell-based; conditions: confocal analysis, anti-Myc staining
T1 construct: expressed in transfected cells; host or cells: HEK293
Method: (A) Cells stably expressing CFP-tagged TLR4 were transiently transfected with plasmids encoding wild-type MD-2 (upper panels) or MD-2s (lower panels). 24 h later, cells were incubated with an anti-Myc antibody and cross-liked with Alexa 647-conjugated anti-mouse polyclonal secondary antibody. (B) HEK293 cells were transiently transfected with a plasmid encoding for Flag-tagged TLR4 (lane 2) and cotransfected with either a Myc-tagged MD-2 (lane 3) or a Myc-tagged MD-2s (lanes 1 and 4) expressing plasmid. Co-immunoprecipitation experiments were then performed using an anti-Flag antibody (lanes 2-4) or an IgG isotype control antibody (lane 1). Samples were fractionated by SDS-PAGE and immunoblotting with an anti-Myc antibody was performed. Experiment shown is representative of 4 separate experiments.
To address this possibility, co-localization studies to examine the cellular distribution of MD-2s with respect to TLR4 were performed. HEK293 cells stably expressing TLR4CFP were subsequently transiently transfected with a plasmid encoding either MD-2 (FIG. 4A, upper panel) or MD-2s (FIG. 4A, lower panel) and stained with an anti-Myc antibody. […] Next whether MD-2s is physically associated with TLR4 was assessed. […]

[2] = plasmid encoding MD-2s 48 h before 10 μg LPS intratracheally, 24 h, vs control vector

T1 sequence (O00206 24-839): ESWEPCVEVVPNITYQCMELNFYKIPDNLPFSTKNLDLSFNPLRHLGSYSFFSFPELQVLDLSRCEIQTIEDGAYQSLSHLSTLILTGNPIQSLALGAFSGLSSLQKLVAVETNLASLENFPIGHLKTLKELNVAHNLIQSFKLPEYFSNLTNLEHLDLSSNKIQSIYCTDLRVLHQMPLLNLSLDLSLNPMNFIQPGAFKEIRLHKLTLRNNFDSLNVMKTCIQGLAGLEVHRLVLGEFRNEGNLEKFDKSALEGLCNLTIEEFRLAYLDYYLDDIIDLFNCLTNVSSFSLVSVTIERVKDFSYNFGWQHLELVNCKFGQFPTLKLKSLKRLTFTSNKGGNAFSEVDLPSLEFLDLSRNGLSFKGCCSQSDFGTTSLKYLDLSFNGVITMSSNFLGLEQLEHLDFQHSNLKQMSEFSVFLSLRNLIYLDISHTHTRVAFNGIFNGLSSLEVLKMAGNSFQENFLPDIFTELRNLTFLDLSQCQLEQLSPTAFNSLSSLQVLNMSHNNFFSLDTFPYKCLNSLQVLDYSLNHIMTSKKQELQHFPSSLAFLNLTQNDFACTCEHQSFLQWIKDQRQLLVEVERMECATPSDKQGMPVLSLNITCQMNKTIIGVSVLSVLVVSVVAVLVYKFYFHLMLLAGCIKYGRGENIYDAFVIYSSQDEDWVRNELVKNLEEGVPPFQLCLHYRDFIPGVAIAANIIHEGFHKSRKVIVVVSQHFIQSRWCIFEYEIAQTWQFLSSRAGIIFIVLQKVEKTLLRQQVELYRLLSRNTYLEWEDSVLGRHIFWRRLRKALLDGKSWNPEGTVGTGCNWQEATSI

B1: MD-2s: alternatively spliced isoform of human MD-2 lacking exon 2, with D38G substitution; expressed and secreted protein sequences in Table 1 (protein, listed as Homo sapiens)
chain 1: MLPFLFFSTLFSSIFTEAQKQYWVCNSSDASISYTYCGRDLKQLYFNLYITVNTMNLPKRKEVICRGSDDDYSFCRALKGETVNTTISFSFKGIKFSKGKYKCVVEAISGSPEEMLFCLEFVILHQPNSN
chain 2: EAQKQYWVCNSSDASISYTYCGRDLKQLYFNLYITVNTMNLPKRKEVICRGSDDDYSFCRALKGETVNTTISFSFKGIKFSKGKYKCVVEAISGSPEEMLFCLEFVILHQPNSN
B1 was tested, and the “Percentage of GR-1+CD11b+ cells in the lung following LPS challenge” value ([1]; flow cytometry, control without MD-2s expression 66.7%) was 26.1%, the “IL-6 concentration in bronchoalveolar lavage fluid (BALF)” value [1, 2] was “reduced” and the “KC concentration in the lung homogenate” value [1, 2] was “reduced”. The “Recruitment of polymorphonuclear leukocytes (PMN) into the lung” value [1, 2] was “reduced” and the “Cellular distribution with respect to TLR4” value (TLR4) was “same cellular distribution”.
